Test results reported in the supplement of paper PMC10567573.

B1: KLHL14 (parent)
chain: WLYCYDPVMDVWARKQDMNTKRAI
B2: SEPHS2 (parent)
chain: KASGRFGLLQGTSAETSGGLLICL

Variants of: B1
Assay: protein stability index of a GFP-peptide fusion (GPS, HEK-293T) (PSI 1-6); higher = more stable
Details: c terminus: a fixed tail appended
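Also: lentivirally expressed fusions sorted by FACS into six bins by GFP to DsRed ratio, PSI derived from sequencing read proportions per bin multiplied by bin number.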

| Variant | protein stability index |
| --- | --- |
| WLYCYDPVMDVWARKQDMNTVRAI | 1.91 |
| WLYCYDPVMDVWARKQDMNTMRAI | 2.08 |
| WLYCYDPVMDVWARKQDMNTLRAI | 1.88 |
| WLYCYDPVMDVWARKQDMNTIRAI | 1.71 |
| WLYCYDPVMDVWARKQDMNTWRAI | 2.2 |
| WLYCYDPVMDVWARKQDMNTDRAI | 2.34 |
| WLYCYDPVMDVWARKQDMNTCRAI | 2.23 |
| WLYCYDPVMDVWARKQDMNTGRAI | 2.61 |
| WLYCYDPVMDVWARKQDMNTARAI | 1.78 |
| WLYCYDPVMDVWARKQDMNTPRAI | 1.58 |
| WLYCYDPVMDVWARKQDMNTQRAI | 1.86 |
| WLYCYDPVMDVWARKQDNNTKRAI | 2.77 |
| WLYCYDPVMDVWARKQDCNTKRAI | 1.86 |
| WLYCYDPVMDVWARKQDTNTKRAI | 2.13 |
| WLYCYDPVMDVWARKQDVNTKRAI | 2.19 |
| WLYCYDPVMDVWARKQDANTKRAI | 2.15 |
| WLYCYDPVMDVWARKQDGNTKRAI | 3.03 |
| WLYCYDPVMDVWARKQDWNTKRAI | 2.86 |
| WLYCYDPVMDVWARKQDRNTKRAI | 2.48 |
| WLYCYDPVMDVWARKQDYNTKRAI | 2.17 |
| WLYCYDPVMDVWARKQDENTKRAI | 2.4 |
| WLYCYDPVMDVWARKQDDNTKRAI | 3.05 |
| WLYCYDPVMDVWARKQDHNTKRAI | 2.55 |

| Variant | protein stability index |
| --- | --- |
| WLYCYDPVMDVWARKQDPNTKRAI | 1.98 |
| WLYCYDPVMDVWARKQDKNTKRAI | 2.1 |
| WLYCYDPVMDVWARKQDLNTKRAI | 1.82 |
| WLYCYDPVMDVWARKQDFNTKRAI | 2.56 |
| WLYCYDPVMDVWARKQDQNTKRAI | 2.08 |
| WLYCYDPVMDVWARKQDSNTKRAI | 2.39 |
| WLYCYDPVMDVWARKQDINTKRAI | 2.28 |
| WLYCYDPVMDVWARKQDMNTKRAW | 2.39 |
| WLYCYDPVMDVWARKQDMNTKRAC | 1.99 |
| WLYCYDPVMDVWARKQDMNTKRAN | 2.29 |
| WLYCYDPVMDVWARKQDMNTKRAS | 2.86 |
| WLYCYDPVMDVWARKQDMNTKRAG | 2.13 |
| WLYCYDPVMDVWARKQDMNTKRAL | 2.25 |
| WLYCYDPVMDVWARKQDMNTKRAP | 2.68 |
| WLYCYDPVMDVWARKQDMNTKRAA | 2.36 |
| WLYCYDPVMDVWARKQDMNTKRAH | 2.63 |
| WLYCYDPVMDVWARKQDMNTKRAK | 2.44 |
| WLYCYDPVMDVWARKQDMNTKRAT | 1.87 |
| WLYCYDPVMDVWARKQDMNTKRAM | 2.16 |
| WLYCYDPVMDVWARKQDMNTKRAV | 2.53 |
| WLYCYDPVMDVWARKQDMNTKRAY | 2.45 |
| WLYCYDPVMDVWARKQDMNTKRAR | 1.4 |
| WLYCYDPVMDVWARKQDMNTKRAE | 2.31 |

| Variant | protein stability index |
| --- | --- |
| WLYCYDPVMDVWARKQDMNTKRAD | 2.92 |
| WLYCYDPVMDVWARKQDMNTKRAQ | 2.79 |
| WLYCYDPVMDVWARKQDMNTKRAF | 1.42 |
| WLYCYDPVMDVWARKQDMNWKRAI | 2.34 |
| WLYCYDPVMDVWARKQDMNVKRAI | 2.11 |
| WLYCYDPVMDVWARKQDMNLKRAI | 2.28 |
| WLYCYDPVMDVWARKQDMNDKRAI | 2.15 |
| WLYCYDPVMDVWARKQDMNHKRAI | 1.88 |
| WLYCYDPVMDVWARKQDMNKKRAI | 2.15 |
| WLYCYDPVMDVWARKQDMNCKRAI | 1.62 |
| WLYCYDPVMDVWARKQDMNRKRAI | 1.77 |
| WLYCYDPVMDVWARKQDMNIKRAI | 1.91 |
| WLYCYDPVMDVWARKQDMNSKRAI | 1.99 |
| WLYCYDPVMDVWARKQDMNGKRAI | 2.57 |
| WLYCYDPVMDVWARKQDMNFKRAI | 1.44 |
| WLYCYDPVMDVWARKQDMNYKRAI | 2.02 |
| WLYCYDPVMDVWARKQDMNEKRAI | 1.95 |
| WLYCYDPVMDVWARKQDMNPKRAI | 2 |
| WLYCYDPVMDVWARKQDMNNKRAI | 1.85 |
| WLYCYDPVMDVWARKQDMNAKRAI | 2.07 |
| WLYCYDPVMDVWARKQDMNMKRAI | 1.7 |
| WLYCYDPVMDVWARKQDMNQKRAI | 1.99 |

Variants of: B2
Assay: as above
Details: c terminus: a fixed tail appended

| Variant | protein stability index |
| --- | --- |
| KAEGRFGLLQGTSAETSGGLLICL | 2.76 |
| KAMGRFGLLQGTSAETSGGLLICL | 1.51 |
| KAPGRFGLLQGTSAETSGGLLICL | 3.31 |
| KARGRFGLLQGTSAETSGGLLICL | 1.82 |
| KATGRFGLLQGTSAETSGGLLICL | 3.36 |
| KADGRFGLLQGTSAETSGGLLICL | 2.07 |
| KAAGRFGLLQGTSAETSGGLLICL | 1.55 |
| KAHGRFGLLQGTSAETSGGLLICL | 4.72 |
| KAFGRFGLLQGTSAETSGGLLICL | 1.71 |
| KQSGRFGLLQGTSAETSGGLLICL | 3.26 |
| KGSGRFGLLQGTSAETSGGLLICL | 1.38 |
| KDSGRFGLLQGTSAETSGGLLICL | 2.81 |
| KYSGRFGLLQGTSAETSGGLLICL | 2.29 |
| KWSGRFGLLQGTSAETSGGLLICL | 2.41 |
| KVSGRFGLLQGTSAETSGGLLICL | 3.69 |
| KSSGRFGLLQGTSAETSGGLLICL | 3.5 |
| KASARFGLLQGTSAETSGGLLICL | 4.01 |
| GASGRFGLLQGTSAETSGGLLICL | 1.44 |
| LASGRFGLLQGTSAETSGGLLICL | 2.28 |
| CASGRFGLLQGTSAETSGGLLICL | 2.13 |
| TASGRFGLLQGTSAETSGGLLICL | 1.69 |
| DASGRFGLLQGTSAETSGGLLICL | 2.07 |
| NASGRFGLLQGTSAETSGGLLICL | 1.95 |
| WASGRFGLLQGTSAETSGGLLICL | 2.52 |
| EASGRFGLLQGTSAETSGGLLICL | 2.6 |
| SASGRFGLLQGTSAETSGGLLICL | 3.13 |
